This note sets out measurements from article PMC12583524 (Nature Communications, 2025).

The target in experiment [1] is recombinant CHIKV E1–E2 fusion protein (Chikungunya virus, sequence as …). Description: SPR.
Experiment [2] addresses T1, CHIKV VLP (strain 119067) (Chikungunya virus, strain 119067, UniProt A0A1I9WLN7). Description: cryo-EM structure.
The target of experiment [3] is T1, CHIKV VLP (strain 119067). Description: dynamic light scattering.

B1: C37 Fab (papain digestion of the mAb) (Fab, V domains shown)
VH: QVQLQESGPGLVKPSETLSLTCTVSGGSIGSSSYYWGWIRQPPGKGLQWIGSFHYSGTTYYNPSLKSRVTISVDTSKNHFSLKLSSVTAADTAVYYCASRQNWNDGYFDYWGQGTLVTVSS
VL: DIQMTQSPATLSLSPGERATLFCRASQSVSSSLAWYQQKPGQAPRLLIYDASNRATGIPARFSGSGSGTDFTLTISSLEPEDFAVYYCQQRGNWPPITFGQGTRLDTK
In the case of B1, the Kd in experiment [1] was under 1 nM.

B2: C37 Fab (recombinant, His-tag on the heavy chain) (Fab, V domains shown)
VH: B1 VH
VL: B1 VL
In the case of B2, the binding result in experiment [2] is given as “binds”.

B3: C37 IgG (antibody, V domains shown)
VH: B1 VH
VL: B1 VL
On to B3, for which the binding result in experiment [3] is “binds”.

B4: C34 Fab (papain digestion of the mAb) (Fab, V domains shown)
VH: EVQLVESGGGLVQPGRSLRLSCAASGFTFDDYAMHWVRQAPGKGLEWVSGISWNSGSIGYADSVKGRFTISRDNAKNSLYLQMNSLRAEDTALYYCAKDMGYSGNDDYYGMDVWGQGTTVTVSS
VL: DIQLTQSPSSLSASVGDRVTITCRASQRISSYLNWYQQKPGKAPKLLIYGAFSLQSGVPSRFSGSGSGTDFTLTISSLQPEDFATYYCQQSYRTLTRTFGQGTKVEIK
For B4, the Kd in experiment [1] is under 1 nM.

B5: C34 Fab (recombinant, His-tag on the heavy chain) (Fab, V domains shown)
VH: B4 VH
VL: B4 VL
Regarding B5, the binding result in experiment [2] is on record as “binds”.

B6: C34 IgG (antibody, V domains shown)
VH: B4 VH
VL: B4 VL
On to B6, for which the binding result in experiment [3] is reported as “binds”.
